Assay results reported in doi:10.1101/2020.08.05.236513.

Biological target: H-2 I-A^b class II MHC molecule (mouse (endogenous in LB27.4))
Test: radioligand binding

Ac-KWDYRESRVWVNDQ-NH2 [14-mer N-acetylated P. merdae β-hex peptide]
fold lower binding than the P. goldsteinii epitope: 3 fold
